Consider 5 substances from patent publication US6060451.

Experiment [1] deals with bovine α-thrombin (bovine) (UniProt P00735). Nature of the experiment: inhibition of thrombin-mediated hydrolysis of Tosyl-Gly-Pro-Arg-AMC (fluorogenic amidolytic assay).
Experiment [2] has as its target human α-thrombin (human) (UniProt P00734). The description is as above.
Experiment [3] deals with bovine α-thrombin (bovine) (UniProt P00735).
The target of experiment [4] is human α-thrombin (human) (UniProt P00734).
Experiment [5] concerns the target thrombin. Put plainly: Ki, antithrombin activity in vitro (amidolytic assay of thrombin activity).

Take “P51 hirudin^45-55 (from UniProt P01050) (peptide)”: the Ki in experiment [1] stood at 720 nM; in experiment [2], 110 nM.

“P53 [D-Phe^45, Arg^47 ]hirudin^45-65 (peptide)”: the IC50, inhibition of fibrin clot formation in experiment [3] amounted to 70 nM; in experiment [4], 4 nM.

“P54 [Thr^45, Arg^47, D-Pro^48 ]hirudin^45-65 (from UniProt P01050) (peptide)” returned a Ki in experiment [2] of 72 nM.

Turning to “P73 [D-Phe^45, Ala^47 ]hirudin^45-65 (from UniProt P01050) (peptide)”, in experiment [2], the Ki came to 41 nM.

Consider r-Hirudin HV2 (from UniProt P09945), for which the Ki in experiment [5] was found to be 0.0004 nM; in experiment [2], 0.00038 nM.

The Ki is the equilibrium dissociation constant of an inhibitor or competing ligand from its target.
